Measurements from patent US20120276611A1 (GRIFOLS THERAPEUTICS, published 2012).

B1: mini-plasmin (enzyme)
chain: VAPPPVVLLPDVETPSEEDCMFGNGKGYRGKRATTVTGTPCQDWAAQEPHRHSIFTPETNPRAGLEKNYCRNPDGDVGGPWCYTTNPRKLYDYCDVPQCAAPSFDCGKPQVEPKKCPGRVVGGCVAHPHSWPWQVSLRTRFGMHFCGGTLISPEWVLTAAHCLEKSPRPSSYKVILGAHQEVNLEPHVQEIEVSRLFLEPTRKDIALLKLSSPAVITDKVIPACLPSPNYVVADRTECFITGWGETQGTFGAGLLKEAQLPVIENKVCNRYEFLNGRVQSTELCAGHLAGGTDSCQGDSGGPLVCFEKDKYILQGVTSWGLGCARPNKPGVYVRVSRFVTWIEGVMRNN
notes: also called mini-plasmin (K5-SP)
B2: micro-plasmin (enzyme, UniProt P00747 562-810, looked up)
chain: APSFDCGKPQVEPKKCPGRVVGGCVAHPHSWPWQVSLRTRFGMHFCGGTLISPEWVLTAAHCLEKSPRPSSYKVILGAHQEVNLEPHVQEIEVSRLFLEPTRKDIALLKLSSPAVITDKVIPACLPSPNYVVADRTECFITGWGETQGTFGAGLLKEAQLPVIENKVCNRYEFLNGRVQSTELCAGHLAGGTDSCQGDSGGPLVCFEKDKYILQGVTSWGLGCARPNKPGVYVRVSRFVTWIEGVMRNN
notes: domain: serine protease domain; also called micro-plasmin (lacking all five kringles)
B3: (TAL6003)-plasmin (enzyme)
chain: MRDVVLFEKKVYLSECKTGNGKNYRGTMSKTKNGITCQKWSSTSPHRPRFSPATHPSEGLEENYCRNPDNDPQGPWCYTTDPEKRYDYCDVPQCAAPSFDCGKPQVEPKKCPGRVVGGCVAHPHSWPWQVSLRTRFGMHFCGGTLISPEWVLTAAHCLEKSPRPSSYKVILGAHQEVNLEPHVQEIEVSRLFLEPTRKDIALLKLSSPAVITDKVIPACLPSPNYVVADRTECFITGWGETQGTFGAGLLKEAQLPVIENKVCNRYEFLNGRVQSTELCAGHLAGGTDSCQGDSGGPLVCFEKDKYILQGVTSWGLGCARPNKPGVYVRVSRFVTWIEGVMRNN
notes: also called recombinant (TAL6003)-plasmin

Experiments:
α2-antiplasmin [1] = molecular target: T1, α2-antiplasmin (UniProt P08697 40-491, limits assumed); experiment: enzyme mixed with α2-antiplasmin, residual S-2251 activity at time points (Wiman and Collen); 22° C., PBS pH 7.4
T1 construct: also called α2-AP
T1 sequence (looked up): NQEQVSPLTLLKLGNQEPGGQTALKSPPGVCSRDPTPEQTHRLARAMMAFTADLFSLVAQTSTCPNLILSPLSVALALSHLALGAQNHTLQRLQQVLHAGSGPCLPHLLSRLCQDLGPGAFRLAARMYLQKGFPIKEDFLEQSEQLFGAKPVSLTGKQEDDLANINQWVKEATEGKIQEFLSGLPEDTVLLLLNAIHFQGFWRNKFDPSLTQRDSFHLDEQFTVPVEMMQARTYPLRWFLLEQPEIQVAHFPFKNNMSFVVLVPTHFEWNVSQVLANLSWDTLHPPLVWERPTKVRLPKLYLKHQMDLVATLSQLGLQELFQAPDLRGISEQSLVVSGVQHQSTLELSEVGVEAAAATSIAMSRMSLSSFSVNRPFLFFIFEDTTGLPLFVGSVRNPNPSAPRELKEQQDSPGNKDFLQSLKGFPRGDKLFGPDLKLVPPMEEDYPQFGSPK
Method: TABLE 3 Inhibition rates for various plasmin species and inhibitors were determined at 22° C. in PBS buffer, pH 7.4.

α2-antiplasmin [2] = molecular target: T1, α2-antiplasmin; experiment: inhibition rates by α2-antiplasmin compared (residual S-2251 activity)

Binder | inhibition rate (second-order rate constant) (α2-antiplasmin [1]) [M⁻¹ s⁻¹] | fold faster inhibition than micro-plasmin or mini-plasmin (α2-antiplasmin [2]) [fold]
B1 | 240000 | 
B2 | 180000 | 
B3 | 1.8e+07 | 40
